Data published in the supplement of paper PMC9170038.

Test system: MS2 coat protein
Assay: apparent KD of MS2 coat protein; designed switch direction (-1 OFF switch, 1 ON switch): -1; higher = weaker reporter binding
Outline: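 On Illumina chips, designed RNA switches with common flanks were made by stalled E. coli RNA polymerase. Titrations with SNAP-549-labelled MS2 coat protein, doubling from 0.7 or 1.5 nM to 3 µM, were done with no input, with 200 uM small-molecule ligand, or with an oligonucleotide input. Apparent KD is the median per design over clusters, from curve fits of normalised cluster fluorescence.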

[1] = input ligand: microRNA oligo, concentration not stated
[2] = Eterna round: R95, input ligand: microRNA oligo, concentration not stated
[3] = Eterna round: R95, input ligand: FMN 200 uM
[4] = Eterna round: R95, input ligand: none

Sequence	apparent KD of MS2 coat protein (input ligand: FMN 200 uM) [nM]	apparent KD of MS2 coat protein (input ligand: none) [nM]	apparent KD of MS2 coat protein [2] [nM]	also measured
GCUGGGUCAGGAUAUACAGGGUCGAAAGAUCUGUGAUACCUACAUGAGGAUCACCCAUGUAGAAGGGACUGGGC [ChP 11-04-2015 #10] (Eterna round: R96, puzzle: Exclusion 2)	43.9	18.9		apparent KD of MS2 coat protein [1]: 14 nM
GGACAGUCAGGAUAUACAUGAGGAUCACCCAUGUUGAGAUGUGAAAGGGCGGGAGUAGGUAGAAGGGACGAGAG [JR_Exclu3_Sub040] (puzzle: Exclusion 3)			23.2	
AGGAAACAUGAGGAUCACCCAUGUGAGGAUAUGAAAAAGAAAAGAAAAGAAAGAAGAAUCAGAAGGCACAAAGG [Mat - Mod of Hog D1] (puzzle: Exclusion 1)			32	apparent KD of MS2 coat protein [3]: 52.9 nM; apparent KD of MS2 coat protein [4]: 45.9 nM
CUCUUGUCAGGAUAUUAUGGACGAUAGCAGGGCUACGUCAGUGAGAAGGGACAUGAGGAUCACCCAUGUAAAAU [Onatbezaes] (puzzle: Exclusion 4)			77.1	
CAGGGUAGAGGAUAUACGUAGGUACAGAUCUGUGUGAUCCUACAUGAGGAUCACCCAUGUAGAAGGCUAGCCUG [LRO-Excl2-07] (puzzle: Exclusion 2)			305	
AAUAAUGCAGGAUAUACAUGAGGAUCACCCAUGUGAAUAAAAUAAAUAAAAUGAUAAAGUAGAAGGGCAAAUAA [JMF's solution 1] (puzzle: Exclusion 3)			28.8	apparent KD of MS2 coat protein [3]: 28 nM; apparent KD of MS2 coat protein [4]: 35.5 nM
GUAUAGUGAGGAUAUAUAUGCAGUAAACCUCAAAAGAUCGAACUUGAGGAUCACCCAAGUAGAAGGCGCGAGAU [JR_Ex2_Sub052] (Eterna round: R97, puzzle: Exclusion 2)	24.5	30.4		
AGAUCGUCAGGAUAUACAUGAGGAUCACCCAUGUAUAGUCUAAAUUUGACUAUAAAGUGUAGAAGGGACGAUCG [Exclusion 3 (MOD6 of #1 Marzena11)] (Eterna round: R97, puzzle: Exclusion 3)	51.5	18.1		
CGUGCGUAUGUGAGGAUAUGCUGGUCCUUGGCUCGGCAGAAGGCACAUGAGGAUCACCCAUGUGGUGUCGUACG [salish99_Bmod_ex4_062] (puzzle: Brourd's mod of Exclusion 4)			152	apparent KD of MS2 coat protein [3]: 53.4 nM; apparent KD of MS2 coat protein [4]: 171 nM
ACAUGAGGAUCACCCAUGUCAGGUUGGUUCUCUCCGGCUGUUGAGGAUAUAGUCCGGUAUCCGCGCUAGAAGGUGAGGGCUGGC [Aenatbe mod 14] (Eterna round: R96, puzzle: Exclusion NG 3)	19.6	25.1		apparent KD of MS2 coat protein [1]: 20.1 nM
AUAUCACAUGAGGAUCACCCAUGUCAGGAUAUGAUACUAUGUACUUCGGUACAUAGUAUCAGAAGGGAUAUGAA [Ex1-3: 66] (puzzle: Exclusion 1)			45.4	
AUAAGCUUUGAUAUCCUUAACAUGAGGAUCACCCAUGUUCGUCUUAUGAUGGUCUGAUCCCUGAGGAUCGGACCGUU [JL-sv1-2.06 Brourd Mod] (puzzle: Sensor v3, turn-off variant 1)			88.4	apparent KD of MS2 coat protein [3]: 34.4 nM; apparent KD of MS2 coat protein [4]: 33.1 nM
AAUAAGUGAGGAUAUACUAAAAUAUGAAUAAAAUAAAUAAAACAUGAGGAUCACCCAUGUAGAAGGCACAAUAA [JMF's Not so obvious solution 5] (puzzle: Exclusion 2)			23.9	apparent KD of MS2 coat protein [3]: 22.6 nM; apparent KD of MS2 coat protein [4]: 22.2 nM
GGGUGACAGUUAGGAUAUCUUAGCACGCCGUAGAGAGAAGGGACAUGAGGAUCACCCAUGUUGUAGUGCCUCAAACACUGCUAG [Beintitian] (Eterna round: R96, puzzle: Exclusion NG 1)	45.7	48.3		apparent KD of MS2 coat protein [1]: 31.9 nM
AAAUGUGCGAGAGGAUAUCGUGUACAAAGUACACGAGAAGGCUUCACAUGAGGAUCACCCAUGUACCGAGGUGAAACACCUUGA [Omei Exc(NG)1 Bv4] (Eterna round: R96, puzzle: Exclusion NG 1)	599	198		apparent KD of MS2 coat protein [1]: 149 nM
GAAAACGCUGAGGAUAUUUCUGAUCAAAGCAGCAAAGAAGGCAGCACAUGAGGAUCACCCAUGUGGUCUUCAAA [jl-ex6-4.03 ViennaUCT mod] (Eterna round: R97, puzzle: Exclusion 6)	907	32.1		
UUUUAACAUGAGGAUCACCCAUGUGAGGAUAUCGAAAUUUAUAUUUAUAUUUAUAUAUCGAGAAGGCACAUUUU [JMF 96] (puzzle: Exclusion 1)			118	
UCCUCACAUGAGGAUCACCCAUGUUAGGAUAUCUUAGAGCGCGAAAGACAGUUCUUUAAGAGAAGGAACUGGGC [Exclusion 1 (MOD1 of Edarti)] (Eterna round: R97, puzzle: Exclusion 1)	54	22.4		

Sequence	apparent KD of MS2 coat protein (input ligand: FMN 200 uM) [nM]	apparent KD of MS2 coat protein (input ligand: none) [nM]	apparent KD of MS2 coat protein [2] [nM]	also measured
CUAGUAUAUCAGGAUAUGAUAUUGUGUAGUAUAUCAGAAGGGAUGACAUGAGGAUCACCCAUGUUAUGGGAUGA [JR_Ex6_Sub048] (Eterna round: R97, puzzle: Exclusion 6)	273	121		
AGCUGUGGCCGAGGAUAUCUGUCUCAUAAAACCGAAAUAUAAUCGGACAUGAGGAUCACCCAUGUAGAGAAGGCGGUCUCAGCA [Eli eng2 - 096] (Eterna round: R96, puzzle: Exclusion NG 2)				apparent KD of MS2 coat protein [1]: 15.8 nM
CAUGAGGUAGGAUAUACGAUAAUAUAGGGUAGAUAUAUAACACAUGAGGAUCACCCAUGUAGAAGGACCAGUAG [Mat - Exclusion 2 - Mod of my Tesla design - D67] (puzzle: Exclusion 2)			29.8	
AAGACACAUGAGGAUCACCCAUGUGAGGAUAUUCGAUGCUGAGCGUAAGCUUAGUAUCGGAGAAGGCACAUAGG [Salishxclusion 8 - Jieux - Exclusion 1] (Eterna round: R97, puzzle: Exclusion 1)	203	251		
CUUUUUUUUGUGAGGAUAUACUGUUAUUAAAGUUAGUAGAAGGUACAUGAGGAUCACCCAUGUUAAUUACUUUA [JR_BME4_Sub050] (puzzle: Brourd's mod of Exclusion 4)			12.9	
UUGAUACAUGAGGAUCACCCAUGUUAGGAUAUACGCAUGCAUGCAUGCAUGCAUGCAAGUAGAAGGAACCAUGC [Design #1] (Eterna round: R97, puzzle: Exclusion 1)	30.7	42		
AUUAUAUAGGAAGGAUAUAGAAUAUUAUUUUAACAUGAGGAUCACCCAUGUAACCUUAUGUGUAGCUAGAAGGUCCAUUUAUUA [Title] (Eterna round: R96, puzzle: Exclusion NG 2)				apparent KD of MS2 coat protein [1]: 95.6 nM
AAAAGUUUUCAGGAUAUGUGCGAUUAAUAUCGUGCAGAAGGGAGGACAUGAGGAUCACCCAUGUUGAAGACAAC [Omei Ex6 A18] (Eterna round: R97, puzzle: Exclusion 6)	66.1	80.2		
UGUUGGUACGUAGGAUAUCCACCAACAGGUGGAAGGAUAUGUACGCAGAAGGUUCGCCAACAGGCGGAGAAGGACGUGGUAACU [pwkr exNG2 2xF7 2xFMN.29] (Eterna round: R96, puzzle: Exclusion NG 2)	34.6	169		apparent KD of MS2 coat protein [1]: 73.8 nM
CCAGACGUUGUAGGAUAUCUGAAAGGAAGUGUAAGAGAAGGAUAGUGUCUGUAAAACAUGAGGAUCACCCAUGUGGGCGCAUCC [PowerStrip EXNG 1.30] (Eterna round: R96, puzzle: Exclusion NG 1)				apparent KD of MS2 coat protein [1]: 16.7 nM
AACAUGAGGAUCACCCAUGUGGGUCCUCUGUGGCAGCGAGACGAGGAUAUCAAUGGAGGGCCAGGUGAGAAGGUGUACGAUCAU [Eternabot solution 28] (Eterna round: R96, puzzle: Exclusion NG 3)	183	386		apparent KD of MS2 coat protein [1]: 192 nM
CGAAGUAGAAACCGAUCCUACAUGAGGAUCACCCAUGUAGCAAGACGUGCACGCGAAGCUCGUCAGACUACCAGAAU [salish99_TOv1_r3_015] (puzzle: Sensor v3, turn-off variant 1)			257	apparent KD of MS2 coat protein [3]: 212 nM; apparent KD of MS2 coat protein [4]: 430 nM
CAUUCGCAAGGAUAUUAUUGCAGUGACAUGAGGAUCACCCAUGUGUUCGUCAUGCAUCGAUGAGAAGGUGCAAGAC [Orater] (puzzle: Exclusion 5)			36.4	apparent KD of MS2 coat protein [3]: 29.9 nM; apparent KD of MS2 coat protein [4]: 41.2 nM
CACGUCUGAGGAUAUCGUUUUUUGUACAUGAGGAUCACCCAUGUCCAAUUUUGUAUAUUACGAGAAGGCAGUGGAA [JR_E5_Sub090] (puzzle: Exclusion 5)			12.3	
AGUACUAACACGGGUGUGUUAGUACAAUAAGCUUGUGAAACAUGAGGAUCACCCAUGUCCUCAUAAGCUCGUCUUAU [salish99_TOv2_r3_075] (puzzle: Sensor v3, turn-off variant 2)			926	apparent KD of MS2 coat protein [3]: 15.4 nM; apparent KD of MS2 coat protein [4]: 14.4 nM
GACCUCACGGUCAGGAUAUCAGAACGGAAUGCGCAUGAGAAGGGACAUGAGGAUCACCCAUGUGGGCUCGUCGC [Eddionce] (puzzle: Brourd's mod of Exclusion 4)			13.9	apparent KD of MS2 coat protein [3]: 21.6 nM; apparent KD of MS2 coat protein [4]: 17.9 nM
AGUGUGUGGCAGGAUAUGCGAUUUGUAAGUGUUGCAGAAGGGUCUACAUGAGGAUCACCCAUGUGUGCGGUUGA [Ex6 #13] (Eterna round: R97, puzzle: Exclusion 6)	658	516		
UCUCUUGGGCAAGGAUAUCCUGCGCGGUUCCGGUUCGUGUCUGUCACAUGAGGAUCACCCAUGUGGGAGAAGGUGCCUGCGGUU [Design 76] (Eterna round: R96, puzzle: Exclusion NG 2)				apparent KD of MS2 coat protein [1]: 13.1 nM
